Test [1] has as its target cleaved, mature CDTb (from limited trypsinization of proCDTb) (Clostridioides difficile). The test is described as follows: negative-stain electron microscopy.
Test [2] has the same target. The test is described as follows: SEC; CDTb oligomerization assay: 500 μg proCDTb at 1 mg/mL, untreated or with trypsin 1:20 (wt/wt) at 37°C for 20 min, with buffer or 2-fold molar excess of Fab; Superdex 200 Increase 10/300 GL in 20 mM Tris pH 8, 100 mM NaCl, 6 mM CaCl2. In general terms: Size exclusion chromatography separates by hydrodynamic size, large species first.

Take “cleaved, mature CDTb (from limited trypsinization of proCDTb) (natural protein)”: in test [1], the stoichiometry N (usually a count of units in the complex or per binding partner) turned out to be 14. This substance also displayed a percent of cleaved CDTb oligomerized in test [2] of 5%.

The values above are taken from publication PMC10127577.
